Measurements reported in article PMC9584954.
Values belong to the substance of their own block, whether it stands above or below them.

Key:
[1] = biological target: Flag-Strep2-tagged Methanococcus aeolicus McrG (tag at the N-terminus of McrG, NG) (Methanococcus aeolicus); assay: affinity purification with mass spectrometry; Flag-Strep2-tagged subunit expressed with its mcr operon (full or truncated) in M. maripaludis at 37 °C; lysate on Strep-Tactin Superflow Plus in 100 mM Tris-HCl pH 7.6, 150 mM NaCl, eluted with 2.5 mM desthiobiotin, then Q-Sepharose anion exchange; SDS-PAGE, bands identified by MALDI-TOF MS, relative abundance by LC-MS/MS
[2] = biological target: Flag-Strep2-tagged Methanococcus aeolicus McrA (tag at the C-terminus of McrA, CA) (Methanococcus aeolicus); assay: as above
[3] = biological target: Flag-Strep2-tagged Methanococcus aeolicus McrB (tag at the N-terminus of McrB, NB) (Methanococcus aeolicus); assay: as above
[4] = biological target: Flag-Strep2-tagged Methanococcus aeolicus McrG (tag at the N-terminus of McrG, NG) (Methanococcus aeolicus); assay: native MS; intact protein mass spectrometry (12 T FT-ICR, nano-electrospray) of purified NG-tagged MCRaeo, 10 μM in 200 mM ammonium acetate pH 7.6
[5] = biological target: Methanococcus aeolicus McrB (untagged) (Methanococcus aeolicus); assay: as above
[6] = biological target: Methanococcus aeolicus McrA (untagged) (Methanococcus aeolicus); assay: as above

percent of the total McrG in the purified complex [1]: 30%
percent of the total McrG in the purified complex [2]: 30%
percent of the total McrG in the purified complex [3]: 30%
Substance: untagged host Methanococcus maripaludis McrG (natural protein)

stoichiometry N [4]: 2
Substance: Flag-Strep2-tagged Methanococcus aeolicus McrG (tag at the N-terminus of McrG, NG) (natural protein)

stoichiometry N [5]: 2
Substance: Methanococcus aeolicus McrB (untagged) (natural protein)

stoichiometry N [6]: 2
Substance: Methanococcus aeolicus McrA (untagged) (natural protein)
